# Experimental data as given in patent US20110262396A1, “COMBINATION TREATMENTS COMPRISING PROTEASE BINDING PROTEINS FOR INFLAMMATORY DISORDERS” (DYAX CORP., priority 2008, published 2011).
# B1: 539A-M0240-B03: selective inhibitor of MMP-9; parental isolate (sFab; IgG) (antibody, V domains shown)
# VL: QYELTQPRSVSGSPGQSVTISCTGTSSDVGGYNYVSWYQQHPGKAPKLMIYDVSKRPSGVPDRFSGSKSGNTASLTISGLQAEDEADYYCCSYAGSYTLVFGGGTKLTVL
# VH: EVQLLESGGGLVQPGGSLRLSCAASGFTFSTYQMVWVRQAPGKGLEWVSVIYPSGGPTVYADSVKGRFTISRDNSKNTLYLQMNSLRAEDTAVYYCARGEDYYDSSGPGAFDIWGQGTMVTVSS
# B2: DX-1000 (designed binder)
# chain: EAMHSFCAFKAETGPCRARFDRWFFNIFTRQCEEFIYGGCEGNQNRFESLEECKKMCTRD
# B3: DX-2400: exemplary MMP-14 antibody; VH SEQ ID NO:59, VL SEQ ID NO:23 (antibody, V domains shown)
# VH: EVQLLESGGGLVQPGGSLRLSCAASGFTFSLYSMNWVRQAPGKGLEWVSSIYSSGGSTLYADSVKGRFTISRDNSKNTLYLQMNSLRAEDTAVYYCARGRAFDIWGQGTMVTVSS
# VL: DIQMTQSPSSLSASVGDRVTITCRASQSVGTYLNWYQQKPGKAPKLLIYATSNLRSGVPSRFSGSGSGTDFTLTISSLQPEDFATYYCQQSYSIPRFTFGPGTKVDIK
# B4: DX-2712: Dyax inhibitor of MMP-12; specific MMP-12 antibody inhibitor; VL SEQ ID NO:118, VH SEQ ID NO:120 (antibody, V domains shown)
# VH: EVQLLESGGGLVQPGGSLRLSCAASGFTFSWYWMHWVRQAPGKGLEWVSGISPSGGMTMYADSVKGRFTISRDNSKNTLYLQMNSLRAEDTAVYYCARDIVGPYSAGLFDYWGRGTLVTVSS
# VL: DIQMTQSPSSLSASVGDRVTITCRASQSIYTYLNWYQQKPGKAPKLLIYAASSLQSGVPSRFSGSGSGTDFTLTISSLQPEDFATYYCQQAGIFGQGTKLEIK
# B5: DX-2410: exemplary MMP-14 antibody; VH SEQ ID NO:24, VL SEQ ID NO:25 (antibody, V domains shown)
# VH: EVQLLESGGGLVQPGGSLRLSCAASGFTFSVYGMVWVRQAPGKGLEWVSVISSSGGSTWYADSVKGRFTISRDNSKNTLYLQMNSLRAEDTAVYYCARPFSRRYGVFDYWGQGTLVTVSS
# VL: DIQMTQSPSSLSASVGDRVTITCRASQGIRNFLAWYQQKPGKVPKLLIYGASALQSGVPSRFSGSGSGTDFTLTISSLQPEDVATYYCQKYNGVPLTFGGGTKVEIK
# Key:
# [1] = system: MMP-14 expressed in synovial cells; assay: Collagen film degradation by human synovial cells (Example 8); format: cell-based; settings: human fibroblasts on bovine type I collagen film, 4 days, data not shown; for collagen film degradation: 37° C.
# Protocol: Human rheumatoid synovial fibroblasts spontaneously express high levels of MMP-14 (Miller et al, 2009 Arthritis Rheum. 2009 March; 60(3):686-97). When they are cultured on collagen film, MMP-14 expressed in synovial cells effectively degrades the collagen film. Human fibroblasts were cultured on bovine type I collagen film at 37° C. for 4 days in the presence or absence of a broad spectrum MMP-inhibitor GM6001, DX-2400 or DX-2410. Cells were then removed from collagen surface by trypsin/EDTA to reveal collagen film. Films were then fixed with 3% PFA for 30 min. and stained with Coomassie blue.
# [2] = system: collagen-induced arthritis (CIA); assay: CIA mouse model, DX-2712 as monotherapy or combined with DMARDs or BRMs (Example 7); format: in vivo, mouse (DBA/1); settings: end of study, 31 days of therapy; number in parentheses = dose in mg/kg (Table 12); DX-2712 20 mg/kg IP Q2D
# LNCaPs (prostate cancer) = assay: DHT-stimulated invasion of LNCaPs through Matrigel; format: cell-based; settings: DX-1000 1 nM
# Protocol: (§1) Firstly, DX-1000 (1 nM) inhibited both DHT-stimulated invasion of LNCaPs (prostate cancer) and HT-1080 (fibrosarcoma) through Matrigel, processes known to be dependent on the plasminogen/plasmin system.
# HT-1080 (fibrosarcoma) = assay: Invasion of HT-1080 through Matrigel; format: cell-based; settings: DX-1000 1 nM
# Protocol: as §1
# gelatinases = assay: Expression and activation of gelatinases; format: cell-based
# human endothelial cells = assay: Tube formation of human endothelial cells; format: cell-based; settings: 1-10 nM; plated on Matrigel or collagen type I
# mouse endothelial cells = assay: Tube formation of mouse endothelial cells; format: cell-based; settings: 1-10 nM; plated on Matrigel or collagen type I
# [3] = Global coagulation screening tests
# [4] = Platelet function screening test
# human MMP-9 = human MMP-9 (Homo sapiens, UniProt P14780); assay: Inhibition of human MMP-9; format: biochemical
# human MMP-9, sequence (P14780 94-707): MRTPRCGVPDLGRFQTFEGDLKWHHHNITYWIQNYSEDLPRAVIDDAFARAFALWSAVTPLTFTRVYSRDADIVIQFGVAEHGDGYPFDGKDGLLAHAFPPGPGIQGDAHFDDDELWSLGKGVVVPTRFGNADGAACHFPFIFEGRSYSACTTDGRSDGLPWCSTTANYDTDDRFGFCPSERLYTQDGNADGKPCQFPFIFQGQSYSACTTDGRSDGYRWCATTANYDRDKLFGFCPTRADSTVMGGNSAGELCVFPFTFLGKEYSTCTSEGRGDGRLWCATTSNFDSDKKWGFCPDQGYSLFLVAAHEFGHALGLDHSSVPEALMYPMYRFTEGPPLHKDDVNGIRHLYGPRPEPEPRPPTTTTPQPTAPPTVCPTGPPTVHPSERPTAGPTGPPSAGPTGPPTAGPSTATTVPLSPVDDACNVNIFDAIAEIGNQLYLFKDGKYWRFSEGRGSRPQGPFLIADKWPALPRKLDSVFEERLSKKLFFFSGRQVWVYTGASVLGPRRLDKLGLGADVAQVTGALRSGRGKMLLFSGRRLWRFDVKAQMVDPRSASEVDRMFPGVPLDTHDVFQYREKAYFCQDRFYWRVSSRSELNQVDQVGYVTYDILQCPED
# mouse MMP-9 = mouse MMP-9 (Mus musculus, UniProt P41245); assay: Inhibition of mouse MMP-9; format: biochemical
# mouse MMP-9, sequence (P41245 108-730): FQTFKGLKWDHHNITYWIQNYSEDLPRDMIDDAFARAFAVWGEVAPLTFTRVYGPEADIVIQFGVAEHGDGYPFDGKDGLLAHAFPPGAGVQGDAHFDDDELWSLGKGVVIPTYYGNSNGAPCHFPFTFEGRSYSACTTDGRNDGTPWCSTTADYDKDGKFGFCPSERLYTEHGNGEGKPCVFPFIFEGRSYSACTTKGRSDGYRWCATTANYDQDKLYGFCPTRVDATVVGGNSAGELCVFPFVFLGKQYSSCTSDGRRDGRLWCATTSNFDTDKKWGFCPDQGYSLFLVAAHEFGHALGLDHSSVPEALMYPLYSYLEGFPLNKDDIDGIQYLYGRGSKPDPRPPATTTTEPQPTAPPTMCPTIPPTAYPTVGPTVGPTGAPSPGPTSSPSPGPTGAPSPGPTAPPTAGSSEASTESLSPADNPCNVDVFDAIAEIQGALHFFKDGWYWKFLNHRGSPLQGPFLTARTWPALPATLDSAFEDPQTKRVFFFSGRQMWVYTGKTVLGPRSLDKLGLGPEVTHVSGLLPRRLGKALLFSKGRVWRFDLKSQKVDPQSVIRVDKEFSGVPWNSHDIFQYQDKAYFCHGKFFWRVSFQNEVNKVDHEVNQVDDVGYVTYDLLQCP
# human plasmin = target: T1, human plasmin (human, UniProt P00747 97-810, limits assumed); assay: inhibition of human plasmin; method not described
# T1 construct: In the cell invasion assays the plasmin is that of the cell cultures
# T1 sequence (P00747 97-810 limits assumed): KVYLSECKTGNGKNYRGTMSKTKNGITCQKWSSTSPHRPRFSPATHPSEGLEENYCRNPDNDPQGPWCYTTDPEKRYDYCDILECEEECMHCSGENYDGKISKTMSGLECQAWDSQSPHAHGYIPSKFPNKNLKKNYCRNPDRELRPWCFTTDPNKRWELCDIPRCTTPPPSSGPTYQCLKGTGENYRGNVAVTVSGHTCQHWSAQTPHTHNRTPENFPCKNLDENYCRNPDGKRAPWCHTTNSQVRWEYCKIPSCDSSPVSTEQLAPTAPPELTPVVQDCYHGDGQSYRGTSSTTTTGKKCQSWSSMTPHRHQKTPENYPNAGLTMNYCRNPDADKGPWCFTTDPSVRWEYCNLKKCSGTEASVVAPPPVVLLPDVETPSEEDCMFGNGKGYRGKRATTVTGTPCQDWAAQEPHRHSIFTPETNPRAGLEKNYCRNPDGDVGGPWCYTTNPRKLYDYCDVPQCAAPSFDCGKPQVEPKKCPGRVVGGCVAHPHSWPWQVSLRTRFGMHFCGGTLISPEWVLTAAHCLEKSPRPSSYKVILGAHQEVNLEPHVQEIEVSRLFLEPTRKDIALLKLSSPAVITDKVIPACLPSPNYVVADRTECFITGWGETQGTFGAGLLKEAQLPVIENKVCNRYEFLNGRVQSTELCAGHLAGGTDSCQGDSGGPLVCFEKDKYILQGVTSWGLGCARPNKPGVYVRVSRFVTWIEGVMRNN
# [5] = system: collagen-induced arthritis (CIA); assay: DX-2400 and DX-2410 in CIA mouse model (Example 10); format: in vivo, mouse (DBA); settings: 20 mg/kg i.p. 3x/week from day 21 after collagen injection; for development of arthritis as assessed by histological analysis of the joints: FIG. 9(A)
# Protocol: 200 μg of chicken type II collagen was injected subcutaneously with complete Freunds adjuvant in DBA mice (male, 3-4 months old). After 21 days, test compounds were administered i.p. at 20 mg/kg, 3×/week. The first mouse which developed clinical symptom of arthritis was detected 26 days after collagen injection. […] FIG. 9(B) provides a description of the histology scoring system used.
# [6] = system: collagen-induced arthritis (CIA); assay: MMP-12 inhibition in mouse collagen-induced arthritis (Example 1); format: in vivo; settings: 20 mg/kg IP Q2D
# Excerpt: The study design was as depicted in Table 6 below. [table]
molecule,measurement,setting,value
"CNC(=O)[C@H](Cc1c[nH]c2ccccc12)NC(=O)[C@@H](CC(=O)NO)CC(C)C [GM6001, reference compound]",collagen film degradation,[1],completely abolished
"CN(Cc1cnc2nc(N)nc(N)c2n1)c1ccc(C(=O)N[C@@H](CCC(=O)O)C(=O)O)cc1 [MTX (3), methotrexate]",% change in AI Score,[2],−80.74%
DX-1000: Kunitz domain polypeptide that inhibits human plasmin; SEQ ID NO:100 or SEQ ID NO:200 (EAMHSFCAFKAETGPCRARFDRWFFNIFTRQCEEFIYGGCEGNQNRFESLEECKKMCTRD),DHT-stimulated invasion of LNCaPs through Matrigel,LNCaPs (prostate cancer),inhibited
same,invasion of HT-1080 through Matrigel,HT-1080 (fibrosarcoma),inhibited
same,expression and activation of gelatinases,gelatinases,down-regulated efficiently
same,tube formation of human endothelial cells,human endothelial cells,efficiently blocked
same,tube formation of mouse endothelial cells,mouse endothelial cells,efficiently blocked
same,effects on global coagulation screening tests,[3],no clinically significant effects
same,effects on a platelet function screening test,[4],no clinically significant effects
Etanercept [Enbrel (30)],% change in AI Score,[2],−70.37%
B1,inhibition of human MMP-9 activity,human MMP-9,can decrease or inhibit the activity
same,inhibition of mouse MMP-9 activity,mouse MMP-9,can decrease or inhibit the activity
B2,Ki,human plasmin,0.088 nM
B3,inhibition of collagen film degradation at 500 nM,[1],almost complete inhibition
same,collagen film degradation,[1],inhibited collagen degradation in a dose-dependent manner
same,redness and swelling of paws,[5],did not significantly improve
same,development of arthritis as assessed by histological analysis of the joints,[5],significantly attenuated
B4,overall inhibition of the arthritic histological indices,"[6]; compared to untreated mice, p<0.05, FIG. 3",29%
same,disease development (arthritic score),"[6]; days 36-46, FIG. 2",arrested
same,arthritic score,"[6]; last day of the study, FIG. 2",sharp increase in arthritic score
same,disease development (arthritic score),"[6]; through day 35, FIG. 2",delayed disease development
same,% change in AI Score,[2],−34.07%
B5,inhibition of collagen film degradation at 500 nM,[1],"slightly lower than DX-2400, showing degraded area"
same,collagen film degradation,[1],inhibited collagen degradation in a dose-dependent manner
same,redness and swelling of paws,[5],did not significantly improve
same,development of arthritis as assessed by histological analysis of the joints,[5],significantly attenuated
